Measurements as given in paper doi:10.1101/2025.03.12.642832.

Biological target: polyketide synthase 16 (Pks16) (D. discoideum (endogenous in AX2-214 cells)) (UniProt Q869W9)
Experiment: cryo-EM structure

A stoichiometry N of 2 was found for “polyketide synthase 16 (Pks16), Q869W9 1-2603” in this work.
